Test results from PMC3341379.

Biological target: Clathrin triskelion with attached Gd-DTPA-ITC, as assembled into clathrin cages (rat (endogenous in rat liver and brain)) (UniProt P11442)
Experiment: negative-stain transmission electron microscopy; cages assembled from modified triskelia mixed with AP-2 proteins 3:1 (v/v), dialysed against 50 mM MES Na pH 6.5, 100 mM NaCl, 2 mM DTT at 4°C; cages pelleted at 60,000 rpm and resuspended in 20 mM MES Na pH 6.2, 2 mM DTT; 0.05 mg/ml on carbon-coated grids, 1% uranyl acetate

“Clathrin triskelion with attached Gd-DTPA-ITC, as assembled into clathrin cages (from UniProt P11442 1-1675; P08081 1-248) (complex)” was tested, and the stoichiometry N (triskelia per cage) was 36.
